{"source": "patent US7977317B2", "about": "“Compositions and methods for modulating blood-brain barrier transport” (Raptor Pharmaceutical Inc., priority 2001, dated 2011)", "key": {"BBCEC monolayers": {"system": "BBCEC monolayers", "assay": "Transcytosis across BBCEC monolayers (in vitro BBB model)", "type": "cell-based, bovine", "text": "FIG. 10 assesses the ability of several agents to interfere with p97 transyctosis. FIG. 10a, transcytosis of I125-P97 was compared in the presence of cold p97 (5 micromolar), Lf (5 micromolar), and Tf (5 micromolar). […] FIG. 10c, RAP, a known poly-peptide inhibitor of the LDL-Receptor family was applied to the cells (25 micrograms/ml).\nFIG. 11 examines the accumulation and transcytosis of p97. FIG. 11a, of [^125I]-p97, [^125I]-BSA and [^125I]-holo-transferrin one hour after i.v. injection. The radioactivity in brain was compared between the three compounds. (n=3); FIG. 11b, Accumulation of p97 and transferrin into the mouse brain parenchyma. In situ brain perfusion was performed with human [^125I]-p97 or [^125I]-holo-transferrin at a final concentration of 10 nM via a catheter inserted in the right common carotid artery. The volume of distribution (VD) of [^125I]-proteins were obtained in the whole brain homogenate (white bars), in brain capillaries (solid bars) and in brain parenchyma (hatched bars) after isolation of the right hemisphere and capillary depletion. Results were obtained for p97 (n=10) and for holo-transferrin (n=6); FIG. 11c, Transcytosis of p97 across BBCEC monolayers. Transcytosis experiments were performed 37° C. (open circles) and 4° C. (closed circles) with BBCEC monolayers. [^125I]-p97 (1 mg/ml) was added to the upper side of the cell-covered filter. One representative experiment is shown (n=4); FIG. 11d, Preferential transport of p97 across the BBCEC monolayers. Apical-to-basal and basal-to-apical transport of [^125I]-p97 (25 nM) was measured for 2 hrs at 37° C. At the end of the experiment, [^125I]-p97 was assessed in the lower or upper chambers of each well by TCA precipitation (n=4).\nFIG. 13 illustrates the transcytosis and accumulation of p97 and transferrin in BBCEC monolayers. FIG. 13a, Transcytosis experiments were performed at 37° C. (solid bars) or 4° C. (white bars). [^125I]-p97 or bovine [^125I]-holo-transferrin (1 mg/ml) was added to the upper side of the cell-covered filter. At the end of the experiment, radiolabelled proteins were measured in the lower chamber of each well by TCA precipitation (n=4). Controls were also performed at 37° C. with denatured [^125I]-p97 or bovine [^125I]-holo-transferrin boiled for 30 min (grey bars) (n=2); FIG. 13b, Biospecific interaction analysis was performed with native or boiled p97 for the indicated times. MAb L235 (5 μg) was immobilized on a sensor chip (SM5) using standard procedures incorporating NHS, EDC and ethanolamine. Native and boiled p97 (5 to 30 min) diluted at 1 mg/ml in Ringer/Hepes was cooled and injected into the BIAcore. The surface plasmon resonance response obtained for native p97 and boiled p97 was plotted (in relative units (RU)) as a function of time; FIG. 13c, The accumulation of both proteins into BBEC cells were also measured. Briefly, after incubation at 37° C. (solid bars) or 4° C. (white bars) with either [^125I]-protein, cells were washed four times with cold PBS. Accumulation of both denatured proteins (grey bars) was also measured at 37° C. Filters were then removed, and the radioactivity associated with the cells was quantified (n=3).\nFIG. 14 illustrates the stability of p97 and integrity of the BBCEC monolayers following p97 transcytosis. FIG. 14a, Transcytosis experiments were performed at 37° C. and 4° C. by adding p97 (1 mg/ml) to the upper compartment. At the end of the experiment, 50 μl from each lower chamber was used for SDS-polyacrylamide gel electrophoresis. After electrophoresis, the gels were stained with Coomassie Blue. A standard curve was also made with known amounts of recombinant p97 (0-2 μg); FIG. 14b. The gels were dried and scanned to quantify the amount of intact p97 that crossed the BBCEC monolayers at 37° C. and 4° C. (n=3); FIG. 14c, Effect of p97 on sucrose permeability of BBCE cell monolayers co-cultured with astrocytes. […]"}, "LRP1B": {"system": "LRP1B", "assay": "RT-PCR after p97 and RAP treatments in U-87 cells: LRP1B", "type": "cell-based, human", "conditions": "RT-PCR", "protocol": "FIG. 34. Effect of p97 and RAP treatments in U-87 cells. A. Cells (2×10^5) were plated onto six-multiwell microplates and grown at 37° C. under 5% CO2 with optimal culture medium supplemented with serum for 4 days. Treatment was performed in serum free medium for 72 hours. RNA isolation and RT-PCR were performed as described in the Examples. B. LRP/LRP1B was immunodetected in cells lysates as described in the Examples. […] (N=2 for p97 treatment), (n=1 for RAP treatment)\nFIG. 35. Effect of p97 and RAP treatments in U-87 cells (RT-PCR). Cells (2×10^5) were plated onto six-multiwell microplates and grown at 37° C. under 5% CO2 with optimal culture medium supplemented with serum for 4 days. Treatment was performed in serum free medium for 72 hours. RNA isolation and RT-PCR were performed as described in the Examples. The amplified PCR products were electrophoresed on a 2% agarose gel and visualized under ultraviolet light. (n=2 for p97), (n=1 for RAP)\nRNA extraction. Cells in six-wells plate or in 75 cm^2 plastic tissue culture flasks were grown at 37° C. under 5% CO2 with optimal culture medium to 80-90% confluence. Total cellular RNA was preserved in Trizol (Gibco BRL, Burlington, ON). The solution are frozen at −80° C. until extraction. The solution was defroze and mixed with 5:1 chloroform for 3 minutes at room temperature. The suspension was centrifugated at 12000 g at 4° C. […]"}, "LDL-R": {"biological_target": "LDL-R (Homo sapiens, UniProt P01130)", "sequence (P01130 22-860, species assumed)": "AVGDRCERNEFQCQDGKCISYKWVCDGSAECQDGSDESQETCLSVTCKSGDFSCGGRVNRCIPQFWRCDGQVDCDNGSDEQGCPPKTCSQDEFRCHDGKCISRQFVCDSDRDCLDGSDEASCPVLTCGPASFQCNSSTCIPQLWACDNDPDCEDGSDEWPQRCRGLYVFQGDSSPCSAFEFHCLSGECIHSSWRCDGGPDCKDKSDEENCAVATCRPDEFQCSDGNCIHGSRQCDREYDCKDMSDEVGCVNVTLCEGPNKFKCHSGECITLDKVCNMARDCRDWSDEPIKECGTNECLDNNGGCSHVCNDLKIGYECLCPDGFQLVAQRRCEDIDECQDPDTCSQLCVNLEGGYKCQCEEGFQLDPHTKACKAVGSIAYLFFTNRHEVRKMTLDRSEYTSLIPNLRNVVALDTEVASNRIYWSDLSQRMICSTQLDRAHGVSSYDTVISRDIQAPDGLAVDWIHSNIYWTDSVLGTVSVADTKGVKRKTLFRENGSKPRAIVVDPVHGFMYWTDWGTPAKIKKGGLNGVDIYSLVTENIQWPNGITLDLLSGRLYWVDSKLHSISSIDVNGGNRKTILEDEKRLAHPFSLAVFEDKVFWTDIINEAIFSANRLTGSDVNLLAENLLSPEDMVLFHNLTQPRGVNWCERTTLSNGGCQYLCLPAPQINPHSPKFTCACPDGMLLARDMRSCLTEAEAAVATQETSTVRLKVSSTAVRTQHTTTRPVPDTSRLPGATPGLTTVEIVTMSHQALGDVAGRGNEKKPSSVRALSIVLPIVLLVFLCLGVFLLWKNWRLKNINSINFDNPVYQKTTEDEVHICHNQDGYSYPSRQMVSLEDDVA", "conditions": "Tables 1-3; cited from earlier work"}, "LRP": {"biological_target": "LRP (Homo sapiens, UniProt Q07954)", "conditions": "Tables 1-3; cited from earlier work"}, "Megalin": {"biological_target": "Megalin (Homo sapiens, UniProt P98164)", "conditions": "Tables 1-3; cited from earlier work"}, "VLDL-R": {"biological_target": "VLDL-R (Homo sapiens, UniProt P98155)", "conditions": "Tables 1-3; cited from earlier work"}}}
{"substance": "RAP: receptor-associated protein, a protein chaperone that regulates LRP; polypeptide inhibitor of the LDL-Receptor family", "values": [{"measurement": "Effect on transcytosis of p97", "setting": "BBCEC monolayers; RAP 25 micrograms/ml (FIG. 10c)", "result": "significantly inhibited"}, {"measurement": "Inhibition of p97 transcytosis by LRP ligands", "setting": "BBCEC monolayers; RAP (0.6 μM), BSA (5 μM), 2 h at 37° C. (FIG. 17A)", "result": "inhibition"}, {"measurement": "Reduction of the initial rate of [125I]-p97 transport across BBCEC monolayers", "setting": "BBCEC monolayers; recombinant RAP 25 μg/ml (FIG. 16b)", "result": "more than 50%"}, {"measurement": "Effect of RAP on the p97 effect on receptor expression", "setting": "LRP1B", "result": "appears to antagonize the effect of p97"}, {"measurement": "Binding to LDL-R", "setting": "LDL-R", "result": "Yes"}, {"measurement": "Binding to LRP", "setting": "LRP", "result": "Yes"}, {"measurement": "Binding to Megalin", "setting": "Megalin", "result": "Yes"}, {"measurement": "Binding to VLDL-R", "setting": "VLDL-R", "result": "Yes"}]}
